Source: publication PMC13189624, “MORC2 mediates transcriptional regulation through liquid-liquid phase separation” (eLife, 2026)

B1: wild-type MORC2 901-1032 with Trx-tag [human] / itself (parent)
chain: LSTNHETIDLLVQILRNCLRYFLPPSFPISKKQLSAMNSDELISFPLKEYFKQYEVGLQNLCNSYQSRADSRAKASEESLRTSERKLRETEEKLQKLRTNIVALLQKVQEDIDINTDDELDAYIEDLITKGD

Variants of: B1
Assay: static light-scattering (SLS) coupled to size-exclusion chromatography
Conditions: with itself; Trx tag (14 kDa) kept on constructs
LSTNHETIDLLVQILRNCLRYQLPPSFPISKKQLSAMNSDELISFPLKEYFKQYEVGLQNLCNSYQSRADSRAKASEESLRTSERKLRETEEKLQKLRTNIVALLQKVQEDIDINTDDELDAYIEDLITKGD [chain 1 F22Q] gave a molecular mass of 113 kDa.
For LSTNHETIDLQVQILRNCLRYFLPPSFPISKKQLSAMNSDELISFPLKEYFKQYEVGLQNLCNSYQSRADSRAKASEESLRTSERKLRETEEKLQKLRTNIVALLQKVQEDIDINTDDELDAYIEDLITKGD [chain 1 L11Q], the molecular mass was 79.8 kDa.
